The target of this assay is ΔEGFR (extracellular-deleted mutant human EGFR) (human) (UniProt P00533). The experiment in a line: cell-based or functional assay.

As to “T691stop neu (ectodomain-derived, carboxyl-terminal deletion mutant of the rat p185neu oncogene) (from UniProt P06494 23-687) (receptor)”, the decrease of the phosphorylation content of immunoprecipitated p155ΔEGFR monomers (scanning densitometry, PY-20 blot of mAb Δ124 immunoprecipitates) came to 33.7% and the ratio of PTyr/ΔEGFRs (scanning densitometry) stood at 1.04.

These data come from EP1745799B1.
